B1: Pistol ribozyme (parent)
chain: GGGUCGUUGUUCCAUAAUCGCGUGGAUAUGGCACGCAAGUUUCUACCGGGCACCGUAAAUGUCCGACUGGAGCCGUUCGGGCGGCUAUAAACAGACCUCAGGCCCGAAGCGUGGCGGCACCUGCCGCCGGUGGUAAAAAAGAUCGGAAGAGCACACGUCU

Variants of: B1
Test: aptazyme ON/OFF ratio, guanine; higher = stronger switching; co-transcriptional cleavage with and without guanine

Variant | aptazyme ON/OFF ratio
GGGUCGGUACAUGAUAAUCGCGUGGAUAUGGCACGCAAGUUUCUACCGGGCACCGUAAAUGUCCGACUGGAGCCGUUCGGGCGGCUAUAAACAGACCUCAGGCCCGAAGCGUGGCGGCACCUGCCGCCGGUGGUAAAAAAGAUCGGAAGAGCACACGUCU | 1.05
GGGUCGGUACAUUAUAAUCGCGUGGAUAUGGCACGCAAGUUUCUACCGGGCACCGUAAAUGUCCGACUGGAGCCGUUCGGGCGGCUAUAAACAGACCUCAGGCCCGAAGCGUGGCGGCACCUGCCGCCGGUGGUAAAAAAGAUCGGAAGAGCACACGUCU | 1.04
GGGUCGGUACAUAAUAAUCGCGUGGAUAUGGCACGCAAGUUUCUACCGGGCACCGUAAAUGUCCGACUGGAGCCGUUCGGGCGGCUAUAAACAGACCUCAGGCCCGAAGCGUGGCGGCACCUGCCGCCGGUGGUAAAAAAGAUCGGAAGAGCACACGUCU | 1.11
GGGUCGGUACCACAUAAUCGCGUGGAUAUGGCACGCAAGUUUCUACCGGGCACCGUAAAUGUCCGACUGGAGCCGUUCGGGCGGCUAUAAACAGACCUCAGGCCCGAAGCGUGGCGGCACCUGCCGCCGGUGGUAAAAAAGAUCGGAAGAGCACACGUCU | 1.26
GGGUCGGUACUUCAUAAUCGCGUGGAUAUGGCACGCAAGUUUCUACCGGGCACCGUAAAUGUCCGACUGGAGCCGUUCGGGCGGCUAUAAACAGACCUCAGGCCCGAAGCGUGGCGGCACCUGCCGCCGGUGGUAAAAAAGAUCGGAAGAGCACACGUCU | 1.59
GGGUCGGUACUACAUAAUCGCGUGGAUAUGGCACGCAAGUUUCUACCGGGCACCGUAAAUGUCCGACUGGAGCCGUUCGGGCGGCUAUAAACAGACCUCAGGCCCGAAGCGUGGCGGCACCUGCCGCCGGUGGUAAAAAAGAUCGGAAGAGCACACGUCU | 1.28
GGGUCGGUACUGCAUAAUCGCGUGGAUAUGGCACGCAAGUUUCUACCGGGCACCGUAAAUGUCCGACUGGAGCCGUUCGGGCGGCUAUAAACAGACCUCAGGCCCGAAGCGUGGCGGCACCUGCCGCCGGUGGUAAAAAAGAUCGGAAGAGCACACGUCU | 1.38
GGGUCGGUACUCAAUAAUCGCGUGGAUAUGGCACGCAAGUUUCUACCGGGCACCGUAAAUGUCCGACUGGAGCCGUUCGGGCGGCUAUAAACAGACCUCAGGCCCGAAGCGUGGCGGCACCUGCCGCCGGUGGUAAAAAAGAUCGGAAGAGCACACGUCU | 1.11
GGGUCGGUACUCUAUAAUCGCGUGGAUAUGGCACGCAAGUUUCUACCGGGCACCGUAAAUGUCCGACUGGAGCCGUUCGGGCGGCUAUAAACAGACCUCAGGCCCGAAGCGUGGCGGCACCUGCCGCCGGUGGUAAAAAAGAUCGGAAGAGCACACGUCU | 1.44
GGGUCGGUACUCGAUAAUCGCGUGGAUAUGGCACGCAAGUUUCUACCGGGCACCGUAAAUGUCCGACUGGAGCCGUUCGGGCGGCUAUAAACAGACCUCAGGCCCGAAGCGUGGCGGCACCUGCCGCCGGUGGUAAAAAAGAUCGGAAGAGCACACGUCU | 1.08
GGGUCGGUACUAUAUAAUCGCGUGGAUAUGGCACGCAAGUUUCUACCGGGCACCGUAAAUGUCCGACUGGAGCCGUUCGGGCGGCUAUAAACAGACCUCAGGCCCGAAGCGUGGCGGCACCUGCCGCCGGUGGUAAAAAAGAUCGGAAGAGCACACGUCU | 1.15
GGGUCGGUACUAGAUAAUCGCGUGGAUAUGGCACGCAAGUUUCUACCGGGCACCGUAAAUGUCCGACUGGAGCCGUUCGGGCGGCUAUAAACAGACCUCAGGCCCGAAGCGUGGCGGCACCUGCCGCCGGUGGUAAAAAAGAUCGGAAGAGCACACGUCU | 1.13
GGGUCGGUACUAAAUAAUCGCGUGGAUAUGGCACGCAAGUUUCUACCGGGCACCGUAAAUGUCCGACUGGAGCCGUUCGGGCGGCUAUAAACAGACCUCAGGCCCGAAGCGUGGCGGCACCUGCCGCCGGUGGUAAAAAAGAUCGGAAGAGCACACGUCU | 1.14
GGGUCGGUACUGAAUAAUCGCGUGGAUAUGGCACGCAAGUUUCUACCGGGCACCGUAAAUGUCCGACUGGAGCCGUUCGGGCGGCUAUAAACAGACCUCAGGCCCGAAGCGUGGCGGCACCUGCCGCCGGUGGUAAAAAAGAUCGGAAGAGCACACGUCU | 1.09
GGGUCGGUACUGGAUAAUCGCGUGGAUAUGGCACGCAAGUUUCUACCGGGCACCGUAAAUGUCCGACUGGAGCCGUUCGGGCGGCUAUAAACAGACCUCAGGCCCGAAGCGUGGCGGCACCUGCCGCCGGUGGUAAAAAAGAUCGGAAGAGCACACGUCU | 1.19
GGGUCGGUACUGUAUAAUCGCGUGGAUAUGGCACGCAAGUUUCUACCGGGCACCGUAAAUGUCCGACUGGAGCCGUUCGGGCGGCUAUAAACAGACCUCAGGCCCGAAGCGUGGCGGCACCUGCCGCCGGUGGUAAAAAAGAUCGGAAGAGCACACGUCU | 1.27
GGGUCGGUACUUUAUAAUCGCGUGGAUAUGGCACGCAAGUUUCUACCGGGCACCGUAAAUGUCCGACUGGAGCCGUUCGGGCGGCUAUAAACAGACCUCAGGCCCGAAGCGUGGCGGCACCUGCCGCCGGUGGUAAAAAAGAUCGGAAGAGCACACGUCU | 1.19
GGGUCGGUACUUAAUAAUCGCGUGGAUAUGGCACGCAAGUUUCUACCGGGCACCGUAAAUGUCCGACUGGAGCCGUUCGGGCGGCUAUAAACAGACCUCAGGCCCGAAGCGUGGCGGCACCUGCCGCCGGUGGUAAAAAAGAUCGGAAGAGCACACGUCU | 1.18

— the RNAGym collection of RNA variant scans (doi:10.1021/acssynbio.7b00057)
